The chains are these.
B1: LINE1-full (parent)
chain: UACGUAGGUGGUUUUCCCCUGAUAGUGCUAAGGGGGCCUGGAAGUUUGGACUGGGCAGAGCUCAACACAGCGUGGCAAAGUGGCUGUGGCUAGACUGCCUCUCUGGAUUCCUCGUCACUCAGCAGGGCAUCUCUGAGAGAAAUGCC

In the data set the parent is B1. Put plainly: self-cleavage, relative activity (ratio to wild type); higher = more cleavage; in vitro, sequencing; the parent is a self-cleaving ribozyme.
On to A64U G122C, for which the self-cleavage is 0.44.

On to A64U G122A, for which the self-cleavage was found to be 0.54.

Consider A64G C131U, for which the self-cleavage turned out to be 0.33.

For the variant A67G A107U, the self-cleavage was determined as 0.92.

Regarding A67G A107G, the self-cleavage stood at 0.25.

Consider A65G U85C, for which the self-cleavage is 0.13.

In the case of A65G U85A, the self-cleavage is 0.07.

On to A64C U119C, for which the self-cleavage amounted to 0.35.

Take A65U U100C: the self-cleavage worked out at 0.16.

Take A64C U130C: the self-cleavage amounted to 0.

Consider A67G A92U, for which the self-cleavage turned out to be 0.41.

On to A67G A92G, for which the self-cleavage was determined as 0.09.

On to A65G A107G, for which the self-cleavage turned out to be 0.03.

With A67G A142C, the self-cleavage was determined as 0.93.

As to A67G A142G, the self-cleavage came out at 0.46.

As for A64G A140U, the self-cleavage was 0.3.

In the case of A64G U91C, the self-cleavage was 0.07.

For A65G U104A, the self-cleavage came to 0.05.

For the variant A67G C113A, the self-cleavage amounted to 0.45.

For the variant A67G C113U, the self-cleavage is 0.44.

Regarding A64G U104A, the self-cleavage stood at 0.32.

Regarding A65G A142C, the self-cleavage stood at 0.08.

As for A67G G88A, the self-cleavage stood at 0.05.

Consider A67G U91C, for which the self-cleavage worked out at 0.16.

For the variant A67G A117G, the self-cleavage was 0.52.

In the case of A67G A117U, the self-cleavage was 0.53.

For A65U G80A, the self-cleavage was found to be 0.28.

Consider A67C G135U, for which the self-cleavage worked out at 0.05.

Turning to A64G A129G, the self-cleavage came to 0.29.

On to A64G A129U, for which the self-cleavage turned out to be 0.25.

On to A64U U119A, for which the self-cleavage is 0.34.

Take A64U C95U: the self-cleavage is 0.07.

With A64G U130A, the self-cleavage worked out at 0.28.

On to A64G U130C, for which the self-cleavage was 0.33.

For A64G A121C, the self-cleavage stood at 0.24.

For A64G A121U, the self-cleavage came to 0.22.

For A64U U73C, the self-cleavage came out at 0.58.

Turning to A64U U73A, the self-cleavage was 0.21.

In the case of A65U G97A, the self-cleavage worked out at 0.04.

On to A67G U100C, for which the self-cleavage turned out to be 0.4.

With A65G G97A, the self-cleavage was determined as 0.03.

Regarding A64G U134C, the self-cleavage stood at 0.28.

A67C C110A: the self-cleavage is 0.05.

With A67G C99U, the self-cleavage came out at 0.27.

Consider A67C U73C, for which the self-cleavage came out at 0.22.

As to C66A A141G, the self-cleavage was determined as 0.04.

Turning to A67G A140U, the self-cleavage is 0.56.

Turning to A64C U85C, the self-cleavage came out at 0.02.

On to A64U G106U, for which the self-cleavage was determined as 0.34.

As to A64U C133U, the self-cleavage worked out at 0.49.

As for A67C A141G, the self-cleavage was found to be 0.12.

With A65G U112C, the self-cleavage turned out to be 0.1.

In the case of A65U A78C, the self-cleavage was 0.27.

A65G A92C: the self-cleavage stood at 0.

Regarding A65G A92G, the self-cleavage was 0.09.

For the variant A65G A92U, the self-cleavage came out at 0.1.

As for A64U U85A, the self-cleavage amounted to 0.06.

For A67G C120U, the self-cleavage is 0.45.

Turning to A67G C111A, the self-cleavage worked out at 0.58.

Turning to A67G C111U, the self-cleavage came to 0.54.

With A64U A140G, the self-cleavage worked out at 0.39.

A67C A138U: the self-cleavage was 0.03.

Regarding A64U A77C, the self-cleavage came out at 0.39.

As to A67C U87A, the self-cleavage was 0.05.

With A67G C131U, the self-cleavage came out at 0.56.

For the variant A65G A140U, the self-cleavage was 0.07.

As for A65G A140C, the self-cleavage was 0.13.

For the variant A65G A140G, the self-cleavage was 0.04.

With A67G A79U, the self-cleavage is 0.73.

A67G A79C: the self-cleavage was determined as 0.48.

On to A65G U91C, for which the self-cleavage was found to be 0.

On to A65G G74A, for which the self-cleavage was 0.01.

For the variant A67G A69G, the self-cleavage came out at 0.31.

In the case of A65G A78U, the self-cleavage turned out to be 0.03.

With A64U G126A, the self-cleavage amounted to 0.37.

Regarding A64C U143A, the self-cleavage worked out at 0.25.

For the variant A65G U73G, the self-cleavage was determined as 0.08.

Turning to A67C, the self-cleavage was 0.06.

Take A67G: the self-cleavage turned out to be 0.5.

Consider A67G G80A, for which the self-cleavage was 0.79.

With A64G U143A, the self-cleavage turned out to be 0.24.

Take A64G C84A: the self-cleavage was 0.05.

For A64G C84U, the self-cleavage amounted to 0.1.

As for A67G G93U, the self-cleavage was 0.11.

Regarding A67G G93A, the self-cleavage was found to be 0.02.

Turning to A67G C84U, the self-cleavage turned out to be 0.04.

Turning to A67G C84G, the self-cleavage came out at 0.04.

As for A65U G114A, the self-cleavage worked out at 0.19.

Regarding A65C U119A, the self-cleavage was 0.

Take A65G C95A: the self-cleavage amounted to 0.04.

For C66G A117G, the self-cleavage worked out at 0.08.

Take C66U G75A: the self-cleavage came to 0.04.

Consider A65U A140U, for which the self-cleavage came to 0.1.

As for A65U A140G, the self-cleavage came out at 0.26.

Take A64U U81G: the self-cleavage turned out to be 0.4.

With A65C U143C, the self-cleavage came out at 0.06.

Consider A64G G72A, for which the self-cleavage stood at 0.19.

As to A64G G72U, the self-cleavage came out at 0.12.

For A67C C71A, the self-cleavage was 0.02.

Take A64U U115A: the self-cleavage was found to be 0.57.

With A65U A67G, the self-cleavage is 0.15.

On to A67G U96A, for which the self-cleavage worked out at 0.06.

Take A67G U96C: the self-cleavage turned out to be 0.

On to A67G C133A, for which the self-cleavage was 0.41.

Turning to A65U A69C, the self-cleavage worked out at 0.02.

For A65U A69G, the self-cleavage was found to be 0.09.

As for A64U U134C, the self-cleavage amounted to 0.51.

For the variant A64U U134A, the self-cleavage stood at 0.16.

As to A67C U104C, the self-cleavage was determined as 0.04.

As to A65C U87C, the self-cleavage was determined as 0.04.

C66U U143C: the self-cleavage turned out to be 0.03.

On to C66U C111U, for which the self-cleavage was determined as 0.04.

A65U U73A: the self-cleavage worked out at 0.18.

A64G A141G: the self-cleavage came out at 0.21.

As to A65U A79G, the self-cleavage amounted to 0.21.

A64U C123U: the self-cleavage was determined as 0.41.

Take A64U U130A: the self-cleavage was 0.62.

For the variant A64G A138G, the self-cleavage was found to be 0.21.

With A64U G82A, the self-cleavage is 0.65.

On to A64G G125A, for which the self-cleavage was determined as 0.31.

For the variant A67C U108C, the self-cleavage came to 0.

Regarding A64G U87G, the self-cleavage was 0.

With A64G U87A, the self-cleavage came out at 0.07.

Consider A65G A117G, for which the self-cleavage came to 0.08.

On to A67C G72U, for which the self-cleavage is 0.06.

On to A67G U119C, for which the self-cleavage came out at 1.07.

For the variant A67G U119A, the self-cleavage is 0.31.

In the case of A65U U112A, the self-cleavage came to 0.14.

As to A65G A79G, the self-cleavage was determined as 0.09.

A64G G105U: the self-cleavage was found to be 0.15.

For the variant A65U A138G, the self-cleavage turned out to be 0.24.

As for A64G U96A, the self-cleavage came to 0.07.

As to A65G A136U, the self-cleavage was 0.07.

In the case of A64U A65U, the self-cleavage was 0.02.

Take A64U G74A: the self-cleavage came to 0.3.

In the case of A67G G89U, the self-cleavage amounted to 0.02.

Consider C66U A140G, for which the self-cleavage was found to be 0.04.

On to A65G U134A, for which the self-cleavage came out at 0.04.

Turning to A64U U132A, the self-cleavage was 0.07.

Take A67C A78U: the self-cleavage came to 0.07.

As for C66U A124G, the self-cleavage came to 0.03.

Regarding A65G G114A, the self-cleavage is 0.04.

As for C66U A138U, the self-cleavage worked out at 0.03.

On to A64G A117U, for which the self-cleavage is 0.26.

As to A65G C84U, the self-cleavage amounted to 0.06.

In the case of A65G C84G, the self-cleavage came out at 0.17.

Regarding A64U U109C, the self-cleavage turned out to be 0.25.

Take A64U U109G: the self-cleavage stood at 0.23.

A67G A121U: the self-cleavage amounted to 0.51.

For A67G A121G, the self-cleavage was determined as 0.53.

With A64U U96A, the self-cleavage turned out to be 0.06.

Regarding C66U A141G, the self-cleavage came to 0.03.

Regarding A65G C131G, the self-cleavage was found to be 0.06.

As for A65U C146U, the self-cleavage came out at 0.16.

For A64G U108A, the self-cleavage came out at 0.12.

In the case of A64U A124U, the self-cleavage was determined as 0.38.

As to A64U A124G, the self-cleavage worked out at 0.3.

For A65G U108A, the self-cleavage worked out at 0.04.

A65G U108C: the self-cleavage was 0.07.

As for A67G G125U, the self-cleavage was 0.39.

In the case of A64G U115C, the self-cleavage worked out at 0.27.

Consider A67C G82A, for which the self-cleavage amounted to 0.05.

Consider A65U G139A, for which the self-cleavage was determined as 0.15.

Consider A64G G74A, for which the self-cleavage is 0.12.

For the variant A64G G75A, the self-cleavage turned out to be 0.17.

In the case of C66U U96A, the self-cleavage was 0.02.

As to A64U C71U, the self-cleavage came out at 0.37.
